These results are taken from the nanobody polyreactivity screen of Harvey et al. (2022).

This series is described as follows: yeast display, Sf9 membrane polyspecificity reagent, FACS + sequencing; frameworks hold sequencing errors. The method in brief: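 Genes from sorted yeast were amplified by colony PCR, read by MiSeq 2 × 250 sequencing and filtered on CDR length. These cells carried a synthetic nanobody library in Saccharomyces cerevisiae BJ5465 and were sorted by FACS into low and high (top ~1%) gates on anti-HA and streptavidin fluorescence. Polyreactivity is labelled according to the gate of origin.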
For the sequence “QVQLVESGGGLVQAGGSLRLSCAASGRIFYPNAKGWYIQAPGKETELVAVIRSRGGSTYYADSVKGRFTISRDNAKNTVYLQMNSLKPEDTAVYYCAARWVGRRTKYDYWGQGTQVTVSS”, the “polyreactivity (PSR sort gate)” value is given as “high polyreactivity”. The same measure for “QVQLVESGGGLVQAGGSLRLSCAASGSTFRRKVMGGYRQAPGKERELVASIRSGGTTNYADSVKGRFTISRDNAKNTVYLQMNSLKPEDTAVYYCNKRLFWYRHYYYLGQGTQVTVSS”: “high polyreactivity”. The same measure for “QVQLVESGGGLVQAGGSLRLSCAASGRIFSRNDMGWYRQSPGKERELVAAITRIGGSTYYADSVKGRITISRDNAKNTVYLQMNSLKPEDNAVYYCAARGSGKYGWGQGSQVTVSS”: “high polyreactivity”; for “QVQIVESGGCLVQAGGSLRLSCAASGFTLFLNSMGWYRQAPGQERELVAAISKSDGITYYADSVKGRFSISRDNAKNTVYLKMNSLKPEDTAVYYCNADARGWSVWDPGEYNYWGQGTQVNVSS”: “low polyreactivity”; for “QVQHVESGGGLVQAGGSLRLSCAASGSTFRTYGMGWYRQAPGKERELVAGITRGGSTTYADSVKGRFTISRDNAKNTVYLQMNSLKPEDTAVYYCNAGYVRVRAHNYDYWGQGTQVTVSS”: “high polyreactivity”. With “QVQLVESGGGLVQAGGSLRLSCAASGITFRYYAMGWYRPAPRKERELVAVISTSGGSTYYADSVKGRFTISRDNAKNTVYLQMNSLKPEDTAVYYCAARYSRSRRYRMDYWGQGTQVTVSS”, the “polyreactivity (PSR sort gate)” value was “high polyreactivity”. The same measure for “QVHLVESGGGLVQAGGSLRLSCAASGGTINRYAMGWSRQAPGKERELVAAITYSGGRTYYADSVKGRFTISRDNAKNTVYLQMNSLKPEDTAVYYCAARVGKIISDSWGQGTQVTVSS”: “high polyreactivity”. Next, “QVQLVESGGGLVQAGGSLRLSCAASGFIFPKNAMGWYRQAPGKERELVAAISRSSGNTYYADSVKGRFTISRDNAKNTVYLQMNSLKPEDTAVYYCAASYWPYRGPVGGSKMYYWGQGTQVTVSS”: “high polyreactivity”.

As to “QVQLVESVGGLVQAGGSLRLSCAASGSTIANYAMGWYRQAPGKERELVARIRHSDGSTYYADSVKGRFTISRDNAKNTVYLQMNSLKPEDTAVYYCNVAYPRYRGNPRQSGMGYWGQGTQVTVSS”, the “polyreactivity (PSR sort gate)” value is reported as “high polyreactivity”. Next, “QVQLVESGGGLVQAGGSLRLSCAASGFTFYGYAMGWYRQAPGKERELVAAISSSGTSTYYADSVKGRFTISRDNEKNTVYLQMNSLKPEDTAVYYCAKDFYRRYYSWGQGTQVTVSS”: “high polyreactivity”. The same measure for “HVQQQESGGGLVQAGGSLRLSCAASGYISVVIGMCWYRQSPGKERELVASIAYGAITYYTDRVKGRFTISRDYAKNTEYLQMNSLKAEDTAVYYCAADQPPLAYHWYWGQGTQATVSS”: “high polyreactivity”; for “QVQLVESGGGLVQAGGSLRLSCAASGYTFFRNTMGWYRQAPGKERELVAVITKSGGSTYYADSVKGRFTISRDNAKNTVYLQMNSLKPEDTAVYYCNAVNALRNTEYNYWGQGTQVTVSS”: “high polyreactivity”. The same measure for “QVHLVDSGGCLVQAGGSLRLSCAASGRTFSAYAMGWYRQAPGKEREVVAAISRSGGSTYYADSVKGRFTISRDNAKNTVYLPMNSLTPEDTAVYDCAVRWPSARIPVKLEDWGQGTQVTVSS”: “high polyreactivity”; for “QVQLEESGGGLVQAGGSLRLSCAASGSTFYDYAMGWYRQAPGKERELVAAINGNGDSTYYADSVKGRFTISRDNAKNTVYLQMNSLKPEDTAVYYCAAYLGWGYDYWGQGTLVTVSS”: “low polyreactivity”; for “QVQLVESGGGLVQAGGSLRLSCAASGSIFFSNAMGWYRQAPGKERELVAAITSTGGSTYYADSVKGRFTISRDNAKNTVYLQMNSLKPEDTAVYYCAAASRRGYYYWGQGTQVTVSS”: “high polyreactivity”.

As to “QVQLVESGGGLVQAGGSLRLSCAASGRTFPIYAMGWYRQAPGKERELVASITRSGGSTYYADSVKGRFTISRDNAKNTVYLQMNSLKPEDTAVYYCAAAANSYSVYTGKFYYWGQGTQVTVSS”, the “polyreactivity (PSR sort gate)” value is “high polyreactivity”. Next, “QVQLVESGGGLVQARVSLRLSSAASGFIIYPYVMGWYRQAPGKERELVATIRTDGRTSYADSVKGRFTISRDNAKNTFYLQMNSLKPEDTAVYYCDARSPLYYIVPYELVQYDYWGLGTQVTVSS”: “high polyreactivity”. Next, “QVQLVESGGGLVQAGGSLRLSCAASGFIFYRNALGWYRQAPGKERELVAVIRWSGTSTSYADSVKGRFTISRDNAKNTVYLQMNSLKPEDTAVYYCNAAWYDLYGDSDGDDYWGQGTQVTVSS”: “low polyreactivity”. Take “QVQLVESGGGLVQAGGSLRLSCDASGRIFYFYAMGWYRQAPGKESELVAAISTSGGSTYYADSVKGRFTISRDNAKNTVYLQMNSLKPEDTAVYYCAARYRYYGSEYDYWGQGTQVTVSS”: the “polyreactivity (PSR sort gate)” value is reported as “low polyreactivity”. In the case of “QVQLVESGGGLVQTGGSLRLSCAASGSTYYYYAMGWSRPAPGKERELVAGISWGGGSTYFADSVKGRFTISRDNAMNSVYLQMNSLKPEDTAVYYCNALNPKSYDYWGQGTQVTVSS”, the “polyreactivity (PSR sort gate)” value is given as “low polyreactivity”. The same measure for “QVQLVESGGGLVQAGGSLRLSCAAYGSIFTGNTMGWYRQATGKERELVATISRRGGSTYYADSVKGRFTISRDNAKNTVYLQMNSLKPEDTAVYYCARGTVYLTWRNDYWGQGTQVTVSS”: “high polyreactivity”; for “QVQLVESWGGLVQAGGSLRLSCAASGFTFRAYAMGWYRQAPGKERELVAAISTGGGSTYYADSVKGRFTISRDNAKNTVYLQMKSLKPEDTAVYYCNALPQRRYYYWGQGTQVTVSS”: “high polyreactivity”. The same measure for “QVQLVESGGGLVQAGGSLRLSCAASGITFQDNAIGSNRQAPGKERELVAAISTGSTNYADSVKGRFTISRDNAKNTVYLQMKSLKPDDTAVYYCAALGQYQTVYSDGYDYYYWGQGTQVTVSS”: “low polyreactivity”. In the case of “QVQLVESGGGLVQAGGSLRLSCAASGRTFRAYAMGWYRQAPGKERELVAGITSGGSTNYADSVKGRFTISRDNAKNTVYLQMNSLKPEDTAVYYCAARRGTYRYRYDYWGQGTQVTVSS”, the “polyreactivity (PSR sort gate)” value is “high polyreactivity”. On to “QVQLVESGGGLVQAGGSLRLSCAASGSTFRRYARGWYRQAPGKERELVAAISTRGGSTYYADSVKGRFTISRDNAKNTVYLQMNSLKPEDTAVYYCAADEPKYTSSSSRRYGYWGQGTQVTVSS”, for which the “polyreactivity (PSR sort gate)” value was “high polyreactivity”. Next, “QVQLVESGGGLVQAGGCLRLSCAASGRTLGAYAMGWYRQAPGKEREFVASITYGGRTCYADSVKGRFTISRDNAMNTVFLQMNSLKPEDSAVYYCASKLPYRWYDYWGQGTQVTVSS”: “high polyreactivity”; “QVQLVESGGGLVQAGGSLRLSCAASGIFVRYAMGWYRQAPGKEREMVAAISFSDDSTYYADSVKGRFTISRDNAKNTVYLQMNSLKPEDTAVYYCNARLERTPCLYLYGSWGQVTQVTVSS”: “low polyreactivity”.

For the sequence “QVQLVESGGGLVQAGGSLRLSCAASGSIFRHNAMGWYRQAPGKERELVAAITSRGGSTYYADSVKGRFTISRDNAKNTVYLQMNSLKPEDTAVYYCAAGGHYYSSPGYNYWGQGTQVTVSS”, the “polyreactivity (PSR sort gate)” value is “high polyreactivity”. The same measure for “QVQLVESGGGLVQAGGSLRLSCAASGRIFGIYAMGWHRQAPGKERELVASITDGTITNYADSVKGRFTISRDNAKNTVYLQMNSLKPEDTAVYYCAAGTQAHAYVVRPIEMDYSGQGTQVTVSS”: “low polyreactivity”. Take “QVQLVESGGGLDQAGGRLRLSCAASGITVGYNDMGRYRQARGKERELVAAINRGASTNYADSVKGRFTISRDNAKNTVYFQMNCLKPEDTAVYYCNADHRDTFIWVGLPHMDYWGQGTQVTVSS”: the “polyreactivity (PSR sort gate)” value is on record as “low polyreactivity”.
